The supplement of paper PMC10567573
± gives the standard deviation.

Assay: protein stability index of a GFP-peptide fusion (GPS, HEK-293T) (PSI 1-6); higher = more stable
[1] = treatment: DMSO, c terminus: a fixed tail appended
[2] = treatment: MLN4924 1 uM, 8 h, c terminus: a fixed tail appended
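Further: 24-mer peptide tiles fused after GFP, lentivirally expressed, FACS-sorted into six equal bins by GFP/DsRed ratio, decoded by Illumina sequencing, PSI is the read-weighted mean bin number.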

| Sequence | protein stability index [1] | protein stability index [2] | protein stability index (treatment: DMSO, c terminus: native) | protein stability index (treatment: MLN4924 1 uM, 8 h, c terminus: native) |
| --- | --- | --- | --- | --- |
| HTSSEYDMLREMFSDSRSNNDDDE [TAF7L] | 5.57 ± 0.28 | 5.24 ± 0.53 | – | – |
| DKNRCELLSFLLLMDYIGINLATM [EDNRA] | 2.77 ± 0.49 | 2.92 ± 0.32 | – | – |
| KTLRVWDLKDDGNMMKVLRGHQNW [WSB1] | 2.66 ± 0.4 | 2.4 ± 0.42 | – | – |
| ATPEQGLSAFYLSYFDMLYPEDSS [SPDEF] | 2.75 ± 0.48 | 2.8 ± 0.41 | – | – |
| LPAGPLPAPLLVLCPSRAELDRWL [PLEKHN1] | 2.81 ± 0.16 | 2.6 ± 0.22 | – | – |
| NLLPAAGELQESGLALCPEVQDLL [SMG5] | 4.26 ± 0.21 | 4.31 ± 0.13 | – | – |
| ALVAAGGAPEDDEEDDGRGRGLLR [DENND6A] | 5.5 ± 0.15 | 5.33 ± 0.14 | – | – |
| ARTCAKQNINAPAPATTSSWEVVR [C22orf31] | 3.04 ± 0.4 | 3.22 ± 0.32 | – | – |
| ITGAYDTIKHPGGAGAEESELQAY [MCOLN1] | 4.84 ± 0.19 | 5.02 ± 0.19 | – | – |
| LSVAPQIGMPFNQLGTLAGSKYYN [SMG5] | 2.67 ± 0.15 | 2.71 ± 0.011 | – | – |
| APKGKGRKPAAGAQSAGTQQVAAV [BRD3] | 4.98 ± 0.33 | 5.04 ± 0.24 | – | – |
| VHQRTHTGEKPHTCSECGKGFIQK [ZNF649] | 3.67 ± 0.28 | 3.52 ± 0.58 | – | – |
| MLPGRTDNAVKNHWNSTIKRKVDT [MYBL2] | 3.61 ± 0.17 | 4.09 ± 0.24 | – | – |
| KEKEQENERKVAQLAEENERLKQE [DDIT3] | 5.52 ± 0.1 | 5.55 ± 0.15 | – | – |
| PRMCRYVRERDRLGNEYPKLHYPE [CDC25A] | 3.08 ± 0.12 | 3.15 ± 0.34 | – | – |
| QLSRDSTLGGKAFHITNDEPIPFW [NSDHL] | 2.89 ± 0.18 | 3.07 ± 0.55 | – | – |
| RPQHSHSNKKRPSLDGRDPGNGTH [ELOA2] | 4.94 ± 0.44 | 4.82 ± 0.39 | – | – |
| DSLWHRSDSAPRNKISRFQAPISA [MFF] | 3.43 ± 0.45 | 3.41 ± 0.19 | – | – |
| EGMDFHRFYFENLLAKNSKPIHTT [CAMK2B] | 2.52 ± 0.36 | 2.49 ± 0.31 | – | – |
| EEEDDDDIHITARIESDLTLESLS [DRICH1] | 5.16 ± 0.12 | 5.16 ± 0.083 | – | – |
| TVYKARDPHSGHFVALKSVRVPNG [CDK4] | 2.31 ± 0.48 | 2.68 ± 0.49 | – | – |
| SPSSDRVSAIIWEGNECKKMDMSV [PHTF1] | 3.6 ± 0.26 | 3.73 ± 0.43 | – | – |

| Sequence | protein stability index [1] | protein stability index [2] | protein stability index (treatment: DMSO, c terminus: native) | protein stability index (treatment: MLN4924 1 uM, 8 h, c terminus: native) |
| --- | --- | --- | --- | --- |
| CVDRQEVAEITKQLPPVVPVSKPG [TCAP] | 4.7 ± 0.2 | 4.63 ± 0.15 | – | – |
| IDKSMTVVLTFITPMLNPLIYTLK [OR4A15] | 3.67 ± 0.16 | 2.8 ± 1 | – | – |
| GIKAQVALRLAELARRRRRRQARR [NOP53] | 4.1 ± 0.34 | 3.85 ± 0.25 | – | – |
| PIRCGEVLFAVGGWCSGDAISSVE [KLHL20] | 2.22 ± 0.42 | 2.34 ± 0.41 | – | – |
| HWDGYSKGVNRKLGRTGLYPSYKV [FUT8] | 2.5 ± 0.32 | 2.53 ± 0.18 | – | – |
| EKTFWKEEKSFWEMEKSFREEEKT [CCDC70] | 4.62 ± 0.23 | 4.82 ± 0.26 | – | – |
| PKNGRHAWIWHDCHRHYHSMEVFT [LOXL2] | 2.28 ± 0.24 | 2.4 ± 0.17 | – | – |
| PAPATQMPSTPGFVGYNPYSHLAY [SMARCE1] | 2.37 ± 0.21 | 2.44 ± 0.27 | – | – |
| TAQHQRRLAAIAQEKDQEMERLRE [FBF1] | 5.36 ± 0.17 | 5.42 ± 0.14 | – | – |
| TILLDGRRVRLELWDTSGQGRFCT [RAB40C] | 2.16 ± 0.2 | 2.14 ± 0.34 | – | – |
| QLLSERFGRGSRTVDLELELQIEL [ARFIP2] | 2.58 ± 0.46 | 2.99 ± 0.94 | – | – |
| VQEHARCVHPRGGVIQSVSSWKHG [C18orf25] | 3.08 ± 0.28 | 3.03 ± 0.4 | – | – |
| LLLAYNSSARIPKCPWMEGGEMSP [INTS4] | 2.27 ± 0.32 | 2.17 ± 0.14 | – | – |
| NFIGRQWEISDDYPSLQAMGWFNN [CRYBA1] | 2.45 ± 0.18 | 2.32 ± 0.18 | – | – |
| NTIAFRHLFLLGYSDGADDTFAAY [MCOLN1] | 2.46 ± 0.66 | 2.33 ± 0.12 | – | – |
| LRLFGRVLERAACLRRCKRTLPAF [P3H4] | 2.37 ± 0.46 | 2.16 ± 0.53 | – | – |
| RNPDQRKESLCISITVSKVDKDQP [FBXO34] | 3.6 ± 0.41 | 3.88 ± 0.24 | – | – |
| LTKDEAAAHLKLTSIEEGYERSFI [IQUB] | 3.58 ± 0.39 | 3.43 ± 0.16 | – | – |
| KSHFQNSREWSGKEKWWDGQRDRK [PBXIP1] | 3.67 ± 0.26 | 3.98 ± 0.31 | – | – |
| HPKDGPSPGGTLMDLSERQEVSSV [DLC1] | 5.15 ± 0.25 | 5.23 ± 0.21 | – | – |
| GQFVMKTRRTLKGHGNKVLCMDWC [GNB5] | 2.16 ± 0.32 | 2.32 ± 0.3 | – | – |
| VSRLTDTTKFTGSHKERFDPSGKG [TPPP] | 4.39 ± 0.1 | 4.5 ± 0.22 | – | – |

| Sequence | protein stability index [1] | protein stability index [2] | protein stability index (treatment: DMSO, c terminus: native) | protein stability index (treatment: MLN4924 1 uM, 8 h, c terminus: native) |
| --- | --- | --- | --- | --- |
| HLTKKDLRVHLKMVDSFHRTSLQY [PPFIA4] | 2.24 ± 0.25 | 2.11 ± 0.41 | – | – |
| VMKLEISPHRKRSDDSDEDEPCAI [DLC1] | 5.21 ± 0.52 | 4.93 ± 0.28 | – | – |
| SPSHKGIAAPHAGANVKPRNSTPP [ZC2HC1A] | 4.92 ± 0.092 | 4.86 ± 0.54 | – | – |
| DISERPSVDDIESETGSTGALETR [C2CD2L] | 5.56 ± 0.22 | 5.59 ± 0.34 | – | – |
| HTQAENAEFMRNFQKGQVTRDGFK [HMOX1] | 4.5 ± 0.17 | 4.54 ± 0.23 | – | – |
| GTEITIAFDFDYGNCKYKVDCACL [KMT2E] | 3.01 ± 0.52 | 2.39 ± 0.5 | – | – |
| RCPSSSLHMSQRERTWPPPAMSPY [C22orf15] | 2.89 ± 0.3 | 2.9 ± 0.27 | – | – |
| TDGRSPRRSRDPGYDHLWDETLSS [PLEKHN1] | 4.33 ± 0.24 | 4.45 ± 0.23 | – | – |
| ARSPSGPSGSLENGTKADGKDAKT [TRIM29] | 5.4 ± 0.19 | 5.54 ± 0.094 | – | – |
| RQDSPSPDFYKQSSPNLQVSSDGT [PCDHGC5] | 4.86 ± 0.34 | 4.88 ± 0.18 | – | – |
| GANINAQTEETQETALTLACCGGF [ANKRD17] | 4.63 ± 0.15 | 4.59 ± 0.31 | – | – |
| TVECYNPRTNEWTYVAKMSEPHYG [KLHL13] | 2.36 ± 0.1 | 2.52 ± 0.72 | – | – |
| GPPGRSIGGAAPSLGALDLLGPAT [SERTAD1] | 3.79 ± 0.14 | 3.81 ± 0.11 | – | – |
| DARVKRKLRGPEPAATEAYGSGDT [TBX6] | 5.16 ± 0.3 | 5.24 ± 0.22 | – | – |
| IIELLASDAGSPSLHKHLTIRLNI [PCDHGC5] | 3.12 ± 0.48 | 3.15 ± 0.6 | – | – |
| FYPALWPQLRICLRVSPAEQPRLE [FBXO33] | 2.39 ± 0.46 | 2.3 ± 0.27 | – | – |
| DSTNVEEAFKNILTEIYRIVSQKQ [RAB11B] | 2.29 ± 0.2 | 2.49 ± 0.25 | – | – |
| QLTKELPLSPAFFGEDGIFRHDRL [PBXIP1] | 3.07 ± 0.19 | 3.01 ± 0.33 | – | – |
| FVSIAQSEQESLLQQAQAQFRMAQ [SMG5] | 2.68 ± 0.31 | 3.08 ± 0.47 | – | – |
| SMTAGVSEREANDALNAYVCKGLP [INTS3] | 4.37 ± 0.16 | 4.38 ± 0.14 | – | – |
| GSQAGGSGSAGQYGSDQQHHLGSG [MYOZ1] | 4.94 ± 0.23 | 5.17 ± 0.18 | – | – |
| ELVSVEDLLKFEKKFQSEKAAGSV [FIS1] | 3.58 ± 0.3 | 4.07 ± 0.35 | – | – |

| Sequence | protein stability index [1] | protein stability index [2] | protein stability index (treatment: DMSO, c terminus: native) | protein stability index (treatment: MLN4924 1 uM, 8 h, c terminus: native) |
| --- | --- | --- | --- | --- |
| LPGACNIPANVSNCNWFCEGSFNG [KRT33B] | 2.33 ± 0.27 | 2.36 ± 0.22 | – | – |
| FSGSLVAALSATGPRFLAYFGSFA [TMEM175] | 2.91 ± 0.11 | 2.61 ± 0.37 | – | – |
| QIQRISLNTLTLNVKSEKVYTRHG [FLOT1] | 2.6 ± 0.14 | 3.01 ± 0.25 | – | – |
| RFQAMEETHLRHMKALLGSYAHSV [FCHO1] | 2.38 ± 0.37 | 2.38 ± 0.31 | – | – |
| RITQYLDAGGIPRTAQSEETRVWH [CAMK2A] | 3.03 ± 0.29 | 3.24 ± 0.39 | – | – |
| ALEEADKMFLRTREPALDGGFQMH [EID1] | 3.75 ± 0.066 | 3.64 ± 0.42 | – | – |
| SRRYTEMALPFFSLAEVRVGYQSQ [MYORG] | 2.3 ± 0.16 | 2.29 ± 0.039 | – | – |
| PDTELKRYFGARAILGEQRPRQRQ [TCF25] | 4.25 ± 0.11 | 4.11 ± 0.18 | – | – |
| LSSSSARFLSRSIPSLQSEYVHY [CDC14A] | – | – | 3.19 ± 0.27 | 3.06 ± 0.26 |
| RGRASGFAGSMFGSVALGPVCPTV [KRT71] | 2.7 ± 0.14 | 2.88 ± 0.28 | – | – |
| MVGGGQPCGPNMSEVSCKKRDDYL [DCTD] | 4.11 ± 0.33 | 4.21 ± 0.19 | – | – |
| ELNKQVVSSSEQLQSYQAEIIELR [KRT33B] | 3.76 ± 0.3 | 3.99 ± 0.34 | – | – |
| SGRPHLPGKKKIRWDPVRRRFIQS [KLHDC10] | 3.35 ± 0.26 | 3.21 ± 0.4 | – | – |
| DSAQMQNGGPSTPPASPPADGSPP [ANKRD40] | 5.24 ± 0.49 | 5.23 ± 0.19 | – | – |
| VIKYNVNDKFSFHEVKDNYIPVIK [RHOBTB3] | 2.21 ± 0.44 | 2.75 ± 0.34 | – | – |
| ERYMCSRFFIDFPHIEEQQKKIES [TENT5D] | 3.21 ± 0.3 | 3.23 ± 0.16 | – | – |
| LARVPKLDLKRQYDRVAQLDQLLH [CHGB] | 2.15 ± 0.063 | 2.48 ± 0.26 | – | – |
| RATNHLDQVPSMQDGSESFFFRHG [SPAG8] | 3.51 ± 0.1 | 3.62 ± 0.28 | – | – |
| LPVVNAVGEIVGIITRHNLTYEFL [CLCN6] | 3.07 ± 0.43 | 2.75 ± 0.66 | – | – |
| RLQEVRESIRRAQVSQVKGAARLA [FCHSD1] | 3.17 ± 0.45 | 3.3 ± 0.28 | – | – |
| AVPTDEARAFAEKNGLSFIETSAL [RAB11A] | 2.9 ± 0.34 | 3.37 ± 0.52 | – | – |
| RALKFRERDALEAVFRFWAGGEKG [DNAAF3] | 2.32 ± 0.07 | 2.59 ± 0.43 | – | – |
